In the supplement of paper PMC10567573 one finds protein stability index data, which are given here for 94 variants.

B1: ZNF263 (parent)
chain: FGGNPRFLSLHRAHLGEEAHKCLE
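Further: lentivirally expressed fusions sorted by FACS into six bins by GFP to DsRed ratio, PSI derived from sequencing read proportions per bin multiplied by bin number.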

In this series the parent is B1. The experiment in a line: protein stability index of a GFP-peptide fusion (GPS, HEK-293T) (PSI 1-6); higher = more stable. The settings on record: c terminus: a fixed tail appended.
With FGGNPRFLSLHRAKLGEEAHKCLE [H14K], the protein stability index worked out at 1.81.
Then FGGNPRFLSLHRAWLGEEAHKCLE [H14W], with 2.42; and FGGNPRFLSLHRALLGEEAHKCLE [H14L], with 1.46.
With FGGNPRFLSLHRARLGEEAHKCLE [H14R] the figure was 1.24; with FGGNPRFLSLHRACLGEEAHKCLE [H14C], 1.95; with FGGNPRFLSLHRAYLGEEAHKCLE [H14Y], 1.86.
Then FGGNPRFLSLHRANLGEEAHKCLE [H14N], with 1.49; and FGGNPRFLSLHRAVLGEEAHKCLE [H14V], with 1.96.
As for FGGNPRFLSLHRAELGEEAHKCLE [H14E], the protein stability index worked out at 1.15.
With FGGNPRFLSLHRAPLGEEAHKCLE [H14P] the figure was 1.59.
Consider FGGNPRFLSLHRADLGEEAHKCLE [H14D], for which the protein stability index turned out to be 2.56.
With FGGNPRFLSLHRAALGEEAHKCLE [H14A] the figure was 1.74; with FGGNPRFLSLHRAILGEEAHKCLE [H14I], 3.64.
With FGGNPRFLSLHRAFLGEEAHKCLE [H14F] the figure was 2.55.
On to FGGNPRFLSLHRAGLGEEAHKCLE [H14G], for which the protein stability index worked out at 1.95.
Then FGGNPRFLSLHRAQLGEEAHKCLE [H14Q], with 2.6; and FGGNPRFLSLHRATLGEEAHKCLE [H14T], with 3.21.
Then FGGNPRFLSLHRASLGEEAHKCLE [H14S], with 1.35; and FGGNPRFLSLHRAMLGEEAHKCLE [H14M], with 1.69; and FGGNPRFLSLHRAHLGIEAHKCLE [E17I], with 1.19.
On to FGGNPRFLSLHRAHLGMEAHKCLE [E17M], for which the protein stability index was 2.82.
Take FGGNPRFLSLHRAHLGHEAHKCLE [E17H]: the protein stability index amounted to 1.82.
Then FGGNPRFLSLHRAHLGAEAHKCLE [E17A], with 1.42.
As for FGGNPRFLSLHRAHLGTEAHKCLE [E17T], the protein stability index worked out at 1.73.
Then FGGNPRFLSLHRAHLGNEAHKCLE [E17N], with 1.97; and FGGNPRFLSLHRAHLGYEAHKCLE [E17Y], with 1.56.
With FGGNPRFLSLHRAHLGQEAHKCLE [E17Q] the figure was 1.85; with FGGNPRFLSLHRAHLGGEAHKCLE [E17G], 1.3; with FGGNPRFLSLHRAHLGPEAHKCLE [E17P], 1.41.
With FGGNPRFLSLHRAHLGWEAHKCLE [E17W] the figure was 2.12; with FGGNPRFLSLHRAHLGCEAHKCLE [E17C], 2.37.
For FGGNPRFLSLHRAHLGLEAHKCLE [E17L], the protein stability index turned out to be 1.25.
Then FGGNPRFLSLHRAHLGDEAHKCLE [E17D], with 1.36; and FGGNPRFLSLHRAHLGREAHKCLE [E17R], with 1.78; and FGGNPRFLSLHRAHLGSEAHKCLE [E17S], with 2.07.
Then FGGNPRFLSLHRAHLGKEAHKCLE [E17K], with 2.5; and FGGNPRFLSLHRAHLGFEAHKCLE [E17F], with 2.94.
With FGGNPRFLSLHRAHLGETAHKCLE [E18T] the figure was 1.46; with FGGNPRFLSLHRAHLGEPAHKCLE [E18P], 2.05.
Regarding FGGNPRFLSLHRAHLGEFAHKCLE [E18F], the protein stability index is 1.85.
Then FGGNPRFLSLHRAHLGESAHKCLE [E18S], with 2.34.
With FGGNPRFLSLHRAHLGEWAHKCLE [E18W] the figure was 2.03; with FGGNPRFLSLHRAHLGEAAHKCLE [E18A], 1.77; with FGGNPRFLSLHRAHLGEYAHKCLE [E18Y], 1.88.
In the case of FGGNPRFLSLHRAHLGEDAHKCLE [E18D], the protein stability index was determined as 1.87.
For the variant FGGNPRFLSLHRAHLGEKAHKCLE [E18K], the protein stability index amounted to 1.39.
For FGGNPRFLSLHRAHLGEQAHKCLE [E18Q], the protein stability index is 1.87.
Then FGGNPRFLSLHRAHLGEMAHKCLE [E18M], with 1.75.
Then FGGNPRFLSLHRAHLGECAHKCLE [E18C], with 2.12; and FGGNPRFLSLHRAHLGELAHKCLE [E18L], with 2.33.
Then FGGNPRFLSLHRAHLGENAHKCLE [E18N], with 1.07; and FGGNPRFLSLHRAHLGEHAHKCLE [E18H], with 1.47; and FGGNPRFLSLHRAHLGEVAHKCLE [E18V], with 2.43.
Turning to FGGNPRFLSLHRAHLGEGAHKCLE [E18G], the protein stability index was found to be 1.61.
With FGGNPRFLSLHRAHLGERAHKCLE [E18R] the figure was 1.62; with FGGNPRFLSLHRAHLGEIAHKCLE [E18I], 2.34; with FGGNPRFLSLHRAHPGEEAHKCLE [L15P], 1.94.
Consider FGGNPRFLSLHRAHFGEEAHKCLE [L15F], for which the protein stability index is 1.27.
With FGGNPRFLSLHRAHKGEEAHKCLE [L15K] the figure was 2.06; with FGGNPRFLSLHRAHGGEEAHKCLE [L15G], 1.89; with FGGNPRFLSLHRAHAGEEAHKCLE [L15A], 1.83.
Then FGGNPRFLSLHRAHIGEEAHKCLE [L15I], with 1.54; and FGGNPRFLSLHRAHQGEEAHKCLE [L15Q], with 1.86.
Then FGGNPRFLSLHRAHRGEEAHKCLE [L15R], with 2.05; and FGGNPRFLSLHRAHHGEEAHKCLE [L15H], with 2.33; and FGGNPRFLSLHRAHSGEEAHKCLE [L15S], with 1.73.
With FGGNPRFLSLHRAHYGEEAHKCLE [L15Y], the protein stability index came to 2.58.
With FGGNPRFLSLHRAHVGEEAHKCLE [L15V] the figure was 1.34; with FGGNPRFLSLHRAHNGEEAHKCLE [L15N], 1.7; with FGGNPRFLSLHRAHMGEEAHKCLE [L15M], 1.62.
With FGGNPRFLSLHRAHCGEEAHKCLE [L15C], the protein stability index stood at 3.76.
With FGGNPRFLSLHRAHTGEEAHKCLE [L15T] the figure was 1.55; with FGGNPRFLSLHRAHWGEEAHKCLE [L15W], 2.28.
With FGGNPRFLSLHRAHEGEEAHKCLE [L15E] the figure was 1.7; with FGGNPRFLSLHRAHDGEEAHKCLE [L15D], 2.46; with FGGNPRFLSLHRAHLGEEAAKCLE [H20A], 1.24.
Then FGGNPRFLSLHRAHLGEEACKCLE [H20C], with 2.94.
Consider FGGNPRFLSLHKAHLGEEAHKCLE [R12K], for which the protein stability index is 1.61.
On to FGGNPRFLSLHYAHLGEEAHKCLE [R12Y], for which the protein stability index came to 1.24.
Then FGGNPRFLSLHHAHLGEEAHKCLE [R12H], with 1.71; and FGGNPRFLSLHLAHLGEEAHKCLE [R12L], with 1.56.
Then FGGNPRFLSLHVAHLGEEAHKCLE [R12V], with 3.14; and FGGNPRFLSLHQAHLGEEAHKCLE [R12Q], with 2.22; and FGGNPRFLSLHWAHLGEEAHKCLE [R12W], with 1.58.
On to FGGNPRFLSLHAAHLGEEAHKCLE [R12A], for which the protein stability index came to 2.08.
Then FGGNPRFLSLHGAHLGEEAHKCLE [R12G], with 1.81; and FGGNPRFLSLHFAHLGEEAHKCLE [R12F], with 2.35.
Consider FGGNPRFLSLHPAHLGEEAHKCLE [R12P], for which the protein stability index worked out at 1.46.
Then FGGNPRFLSLHCAHLGEEAHKCLE [R12C], with 1.87.
Then FGGNPRFLSLHNAHLGEEAHKCLE [R12N], with 2.49; and FGGNPRFLSLHTAHLGEEAHKCLE [R12T], with 1.95; and FGGNPRFLSLHMAHLGEEAHKCLE [R12M], with 2.36.
With FGGNPRFLSLHDAHLGEEAHKCLE [R12D] the figure was 1.85; with FGGNPRFLSLHSAHLGEEAHKCLE [R12S], 2.17.
